From the nanobody polyreactivity screen of Harvey et al. (2022)

Experiment: yeast display, Sf9 membrane polyspecificity reagent, FACS + sequencing; frameworks hold sequencing errors
Summary of the method: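 A nanobody's polyreactivity label depends on the gate it was sorted from. Yeast display cells were stained with 10% biotinylated, detergent-solubilized Sf9 membrane reagent for 1 hour at 4 °C, enriched on streptavidin microbeads and sorted by FACS. The low and high (top ~1%) gates were set on anti-HA fluorescence for expression and streptavidin fluorescence for reagent binding.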

## QVQLVESGGGLVQAGGSLRLSCAASGRTFRPYAMGWYRQAPGKERELVAAIRGSTGSTYADSVKGRFTISRDNAKNTVYLQMNSLKPEDTAVYSCATYRYYSGLGGGYWGQGTQVTVSS
  polyreactivity (PSR sort gate): high polyreactivity

## QVQLVESGGGLVQAGGSLRLSCAASGFTFNRYAMGWYRQAPGKERELVAAITSGGRTYYADSVKGRFTISRDNAKNTVYLQMNSLKPEDTAVYYCATLYVRNVSGYDYWGQGTQVTVSS
  polyreactivity (PSR sort gate): high polyreactivity

## QVQLEESGGGLVQAGGSLRLSCAASGSIFGFYAMGWYRQAPGKERELVAAISQRGGNTYYADSVKGRFTISRDNAKNTVYLQMNSLKPEDTAVYYCATDKHPYKRHWYYTYDYWGQGTQLTVSS
  polyreactivity (PSR sort gate): high polyreactivity

## QVQLVESGGGLVQAGGSLRLSCAASGRIFGIYAMGWFRLAPWKERELVARITGGGSTNYADSLKGRFTISRDNAKNTVYFQMTSLKPEDTAVYYCNTKKLPYAEGYWGQGTQVTVSS
  polyreactivity (PSR sort gate): low polyreactivity

## QVQLVESGGGLVQAGGSLRLSCAASGIIFYNKAMGWYRQAPGKERELVAAITWSDGSTYYADSVKGRFTISRDNAKTTVYLQMNSMKPEDTAVYYCARRSGDERRDGDYWGQGTQVTVSS
  polyreactivity (PSR sort gate): low polyreactivity

## QVQLVETGGGLVQAGGSFRLSCAASGGPFDTYVMGWYRQAPGKETELVAVITRGASTYYADSVKGRFTISRDNAKNTVYLQMNSLKPEETAVYYCAASFYSPDYYRFLYSFDYWGQGTQVTVSS
  polyreactivity (PSR sort gate): low polyreactivity

## QVQLVESGGGLVQAGGSLRLSCAASGIIFQYYAMGWYRQAPGKERELVAAISWSGGSTYYADSVKGRFTISRDNAKNTVYLQMNSLKPEDTAVYYCAARSRSYWPYEGDYWGQGTQVTVSS
  polyreactivity (PSR sort gate): low polyreactivity

## QVQLVESRGGLVQAGGSLRLSCAASGATFNHYAMGWYRQAPGKERELVAAITKSGGSTYADSVKGRFTISRDNAKKTVYLQMNSLKPEDTAVYYCAAGRRKYGTKGRGDYWGQGSQVTVSS
  polyreactivity (PSR sort gate): low polyreactivity

## QVQLVESGGGLVQAGGSLRLSCAASGSIFLEYAMGWYRQAPGKERELVAAISSSGGSTYYADSVKGRFTISRDNAKNTVYLQMNSLKPEDTAVYYCAAGKSKYGVRGYYWGQGTQVTVSS
  polyreactivity (PSR sort gate): high polyreactivity

## QVQLVESGGVLVQAGGSLRLSCAASGFTFDYYAMGWYIPAPGKERELVASISYNGGITNYADSVQGRFTISRDNAKNTVFLHMHSLKPEDTAVYYWNAVPLYYWRFDYWGQGTQVTVSS
  polyreactivity (PSR sort gate): low polyreactivity

## QVQLVESGGGLVQAGGSLRLSCAASGRTFAAYAMGWYRQAPGKEREFVADITYSGGSTTYADSVKGRFTISRDNAKNTVYLLMNSLNPEDTAVYYCNKLAYTPGWRGFVWYDYWGQGTQVSVSS
  polyreactivity (PSR sort gate): low polyreactivity

## QVQLVESGGGLVQAGGSLRLSCAASGSIFYYNAMGWYRQAPGKERELVAAITSGGSTHYADSVKGRFTISRDNAKNTVYLQMNSLKPEDTAVYYCAADVWYKYHRSAIIVEFDYWGQGTQVTVSS
  polyreactivity (PSR sort gate): low polyreactivity

## QVQLVESGGGLVQAGGSLRLSCAASGFTFHNYAMGWYRQAPGKERELVAAITWDGGSTYYADSVKGRFTISRDNEKNTVDLQLNRLKPEDTAVYYCALDQYYYYYADYNFDYWGQGTQVTVSS
  polyreactivity (PSR sort gate): high polyreactivity

## QVQLVESGGGVVQAGGMLRLSCAASGTTFDVYAMGGYRQAPGKEREFVAAITTSGGSTYYADSVKGRFSISRDNAKNTVYLEMYSLKPEVTAVYYCAAVWWKSFQGSSYRMNYWGQGTQVTVSS
  polyreactivity (PSR sort gate): high polyreactivity

## QVQLVESGGGLVQAGGSLRISCAASGSIFWANAMGWYRQAPWKERELVAAISSSGGRTYYADSVKGRFTISRDNAKNTVYLQMNSLKPEDSAVYDCNKLRLAYYEQGDYWGQGTQVNVSS
  polyreactivity (PSR sort gate): high polyreactivity

## QVQLVESGGGLVQAGGSLRLSCAASGFIFRQNAMGWYRQAPGKERELVAAITSSGGRTYYADSVKGRFTISRDNAKNTVYLQMNSLKPEDTAVYYCARRDYWGQGTQVTVSS
  polyreactivity (PSR sort gate): high polyreactivity

## QVQLVESGGGLVQAGGSLRLSCAASGLTFTDYAMGWNRQAPGKERELVAGIWDGGSTYYADSVNGRFTISRDNPKNTVYLLMNSLKPEDTAVYYCAARYAGGFYYWGQGTQVTVSS
  polyreactivity (PSR sort gate): high polyreactivity

## QVQRVESGGGLVQAGGSLRLSCAASGRTFAGYAMGWYRQAPGKERELVAAITTGGSTKYADSVKGRLTISRDNAKNTVFLQRTSLKPEDTAVYYCNARKRVYSGNTLMYYWGQGTQVTVSS
  polyreactivity (PSR sort gate): high polyreactivity

## QVQLVESGGGLVQAGGSLRLSCAASGFIFAYNAMGWYRQAPGKERELVAAISWSGGSTYYADYVKGRFTISRDNAKNTVYLQMNSLKPEDTAVYYCNAVSYYGARYDYWGQGTQVTVSS
  polyreactivity (PSR sort gate): high polyreactivity

## QVQLVESGGGLVQAGGSLRLSCAASGITFRANAKGWYRQAPGKERELVAAISARGGSTYYADSVKGRFTISRDNAKNTVYLQMNSLNPEDTAVYYCAKELSQGMRYDYWGQGTQVTVSS
  polyreactivity (PSR sort gate): high polyreactivity

## QVQLVESGGGIVQAGVSLRLSCAASGSTFRDYAMGWSRPAPGKERELVAAISNSGGRTYYADSVKGRFTISRDNAKNTVYLQMYSLKPEDTAVYYCNAGRQTKWGQGTQVTVSS
  polyreactivity (PSR sort gate): high polyreactivity

## QVQLVESGGGLVQAGGSLRLSCAASGSIFYPYAMGWYRQAPGKERELVAAITWSGGDTYYADSVKGRFTISRDKAKYTDYLQMNSLKPEDTAVYYSAAEWNVSPYDYWGQGTQVTVSS
  polyreactivity (PSR sort gate): low polyreactivity

## QVQLVESGGGLVQAGGSLRLSCAASGGTFPQYAKGWYRQAPGKEREFVADITTRGGTTYYADSVKGRFTISRDNAKNTVYLQMNSLKPEENAVYYCAADNPADWWGLDYWGQGTQVTVSS
  polyreactivity (PSR sort gate): low polyreactivity

## QVKLEESGGGLVQAGGSLRLSCAASGSTFPGNAMGSYRQAPGKERELVAAINWSGDSTYYADSVKGRFTNSRDKPKNTVYLQMNSLTPEDTAVYYCAAYGDGYYYWGQGTQVTVSS
  polyreactivity (PSR sort gate): low polyreactivity

## QVQPVESAGGLVQAGGSLRLSCAASGSTFARYAMGWFSQAPGKERELVAVITWTGGSTYADSVKGRFTISRDNAKNTVYLQMNSLNPEDTAVYYCNAVHATRRRLGYWGQGTQVTVSS
  polyreactivity (PSR sort gate): low polyreactivity

## QVQLVESGGGLVQAGGSLRLSCAASGSTYRGYAMGWYRQAPGKERELVAAISWTGGSTYNADSVKGRYTISRDNAKNTVYLQMNSLKPEDTAVYYCNTYVKDWGGYSYRYRYYYWGQGTQVTVSS
  polyreactivity (PSR sort gate): high polyreactivity

## KVQLVESRGGLVQAGGSLRLSCAASGRTFIRYAMGWYRQAHGKEREFVAAITWSGGSTYYADSVKGRFTISRDNAKNTVYLQMNSLKPEDTAVYYCAKYPAARAVDYWGQGSQVTVSS
  polyreactivity (PSR sort gate): high polyreactivity

## QVQLVESGGGLVQAGGSLRLSCAASGLIFAYNTMGWYRQAPGKERELVAGITSSGSTYYADSVKGRFTISRDNAKNTVYLQMNSLKPEDTAVYYCAAEWDDGRSWYWYYLVGFEYWGQGTQVTVSS
  polyreactivity (PSR sort gate): high polyreactivity

## QVQLQESGDGLVQAVGSLRLSCAASGYISGYYYMGWYRQAPGKERELVAGIEAFGSSTNYADCVKGRFTISRDNAKNTVYLQMNSPKPEDTAVYYCAAEYDDWDYHWYWGQGTQVTVSS
  polyreactivity (PSR sort gate): low polyreactivity

## QVQLVESGGGLVQAGGSLRLSCAASGRIFYPNAMGWYRQAPGKERELVAAITGRGGITYYADSVKGRFTISRDNAKNTVYLQMNSLKPEDTAVYYCNAAAYYPTNYGGYLFEYWGQGTQVTVSS
  polyreactivity (PSR sort gate): low polyreactivity

## QVQLVESGGGLVQAGGSLRLSCAASGSTFYYYAMGWYRQAPGKERELVATITSTGRTNYADSVKGRFTISRDNAKNTVYLQMNSLKPEDTAVYYCAALRRIQRPEYGYWGQGTQVTVSS
  polyreactivity (PSR sort gate): low polyreactivity

## QVQLVESGGGLVQAGGSLRLSCAASGSIFVGYAMGWYRQAPGKERELVAAISTRGGSTYYADSVKGRFTISRDNAKNTVYLQMNSLKPEDTAVYDCAADYLDSTYGYVYGWDDYWGQGTQVTVSS
  polyreactivity (PSR sort gate): low polyreactivity
